# Measurements: paper PMC10514558, “Suramin inhibits SARS-CoV-2 nucleocapsid phosphoprotein genome packaging function”
# Legend:
# [1] = target: SARS-CoV-2 N NTD (SARS-CoV-2, UniProt P0DTC9 44-180); experiment: MST; 20 nM RNA; no suramin; apparent Kd; settings: protein: recombinant; tags: 6xHis; label: 5'-Cy5
# [2] = target: SARS-CoV-2 N CTD (SARS-CoV-2, UniProt P0DTC9 247-364); experiment: MST; settings: protein: recombinant; tags: 6xHis; chain copies: 2; label: 5'-Cy5
binder,measurement,setting,value
AUUAAAG (ssRNA) [Cy5-ssRNA 7-mer],Kd,[1],30.6 ± 4.9 µM
same,Kd,[2],5.3 ± 0.2 µM
